Results on 1 molecule are retold here after publication PMC6929975, “A supramolecular protein chaperone for vaccine delivery” (Theranostics, 2020).

For assay [1], the target named is Hepatitis B surface antigen (hepatitis B virus, UniProt P03138 1-389, fluorescent dye NT-647 (cysteine-reactive Monolith NT Protein Labelling Kit)). As to the kind of experiment: MST; proteins labelled with NT-647 held at constant concentration; Comp. 1 or 2 varied from 0.25 μM to 10 mM; PBS with 0.05% Tween-20, pH 7.4; Monolith NT.115, standard glass capillaries. To be noted: both partners purified.

Assay [2] has as its target T1, ovalbumin (UniProt P01012 1-386, fluorescent dye NT-647 (cysteine-reactive Monolith NT Protein Labelling Kit)).
T1 construct: source: bought: InvivoGen (endotoxin free)
T1 sequence (looked up): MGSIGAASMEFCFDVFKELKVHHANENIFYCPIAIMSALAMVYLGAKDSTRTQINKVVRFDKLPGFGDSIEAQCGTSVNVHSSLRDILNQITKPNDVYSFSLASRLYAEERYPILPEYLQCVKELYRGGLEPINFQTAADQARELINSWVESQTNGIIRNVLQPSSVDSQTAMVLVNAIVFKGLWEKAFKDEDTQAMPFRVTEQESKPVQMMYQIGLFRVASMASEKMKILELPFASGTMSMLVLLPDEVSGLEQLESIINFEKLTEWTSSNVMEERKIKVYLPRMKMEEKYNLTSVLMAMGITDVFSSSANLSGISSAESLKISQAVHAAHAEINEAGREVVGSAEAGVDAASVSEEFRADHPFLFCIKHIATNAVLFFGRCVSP
The assay is described as above. To be noted: both partners purified.

Starred links: 1 amine or outer side, 2 acyl side, 3 side chain; linkers in the order of their positions; H or OH if unused. Non-standard residues stand in square brackets, D forms with d. Groups on a side chain read outwards from the residue. *: point of attachment. Fbp = flurbiprofen, CC(C(=O)*)c1ccc(-c2ccccc2)c(F)c1; γGlu = O=C(O)[C@H](CCC(=O)[*:2])N[*:1]

B1: Fbp-G^DF^DF^DY^DK(γE)2-NH2 (peptide)
peptide: Fbp-G[dF][dF][dY][dK]([γGlu-γGlu])-NH2
SMILES: CC(C(=O)NCC(=O)N[C@H](Cc1ccccc1)C(=O)N[C@H](Cc1ccccc1)C(=O)N[C@H](Cc1ccc(O)cc1)C(=O)N[C@H](CCCCNC(=O)CC[C@H](NC(=O)CC[C@H](N)C(=O)O)C(=O)O)C(N)=O)c1ccc(-c2ccccc2)c(F)c1
notes: also called Comp; supramolecular protein chaperone; source: synthetic peptide (Fmoc SPPS on Rink resin, purified by HPLC)
Broadly, the Kd is the free concentration of one partner at which half of the binding sites on the other are occupied at equilibrium, for simple one-to-one binding. A high value points to lower affinity. For the molecule B1, the figures for the Kd in assay [1] and in assay [2] were 68 µM and 83.3 µM, respectively.
